PMC10397247
Values belong to the binder of their own block, whether it stands above or below them.

Legend:
4H2729-AA = molecular target: T1, 4H2729-AA; test: two-hybrid library CCmax;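 also: natural log of median RNA to DNA barcode read ratio; higher means stronger binding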
T1 chain: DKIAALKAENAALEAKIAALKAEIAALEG

4H2754-AA = molecular target: T2, 4H2754-AA; test: two-hybrid library CCmax; settings: mean of both orientations;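 also: natural log of median RNA to DNA barcode read ratio; higher means stronger binding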
T2 chain: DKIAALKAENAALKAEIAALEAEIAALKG

4H2837-AA = molecular target: T3, 4H2837-AA; test: two-hybrid library CCmax; settings: mean of both orientations;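 also: natural log of median RNA to DNA barcode read ratio; higher means stronger binding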
T3 chain: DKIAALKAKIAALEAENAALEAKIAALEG

4H2883-AA = molecular target: T4, 4H2883-AA; test: two-hybrid library CCmax; settings: mean of both orientations;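 also: natural log of median RNA to DNA barcode read ratio; higher means stronger binding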
T4 chain: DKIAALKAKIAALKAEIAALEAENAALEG

4H2944-AA = molecular target: T5, 4H2944-AA; test: two-hybrid library CCmax; settings: mean of both orientations;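 also: natural log of median RNA to DNA barcode read ratio; higher means stronger binding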
T5 chain: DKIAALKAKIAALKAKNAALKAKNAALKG

4H2949-AA = molecular target: T6, 4H2949-AA; test: two-hybrid library CCmax; settings: mean of both orientations;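 also: natural log of median RNA to DNA barcode read ratio; higher means stronger binding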
T6 chain: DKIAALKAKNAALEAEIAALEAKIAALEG

4H3112-AA = molecular target: T7, 4H3112-AA; test: two-hybrid library CCmax; settings: mean of both orientations
T7 chain: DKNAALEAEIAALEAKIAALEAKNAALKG

4H317-AA = molecular target: T8, 4H317-AA; test: two-hybrid library CCmax; settings: mean of both orientations
T8 chain: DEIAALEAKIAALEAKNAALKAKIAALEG

4H3343-AA = molecular target: T9, 4H3343-AA; test: two-hybrid library CCmax; settings: mean of both orientations
T9 chain: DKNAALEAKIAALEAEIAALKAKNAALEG

4H335-AA = molecular target: T10, 4H335-AA; test: two-hybrid library CCmax; settings: mean of both orientations
T10 chain: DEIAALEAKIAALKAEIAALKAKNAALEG

4H342-AA = molecular target: T11, 4H342-AA; test: two-hybrid library CCmax; settings: mean of both orientations
T11 chain: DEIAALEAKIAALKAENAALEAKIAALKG

4H3427-AA = molecular target: T12, 4H3427-AA; test: two-hybrid library CCmax; settings: mean of both orientations
T12 chain: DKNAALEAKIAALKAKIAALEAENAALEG

4H3606-AA = molecular target: T13, 4H3606-AA; test: two-hybrid library CCmax; settings: mean of both orientations
T13 chain: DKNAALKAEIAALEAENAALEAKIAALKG

4H3627-AA = molecular target: T14, 4H3627-AA; test: two-hybrid library CCmax; settings: mean of both orientations
T14 chain: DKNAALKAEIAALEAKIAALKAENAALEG

4H3655-AA = molecular target: T15, 4H3655-AA; test: two-hybrid library CCmax; settings: mean of both orientations
T15 chain: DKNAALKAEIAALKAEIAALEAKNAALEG

4H3844-AA = molecular target: T16, 4H3844-AA; test: two-hybrid library CCmax; settings: mean of both orientations
T16 chain: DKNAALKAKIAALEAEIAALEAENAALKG

4H3921-AA = molecular target: T17, 4H3921-AA; test: two-hybrid library CCmax; settings: mean of both orientations
T17 chain: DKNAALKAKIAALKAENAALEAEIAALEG

4H429-AA = molecular target: T18, 4H429-AA; test: two-hybrid library CCmax; settings: mean of both orientations
T18 chain: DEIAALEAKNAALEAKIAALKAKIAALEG

4H454-AA = molecular target: T19, 4H454-AA; test: two-hybrid library CCmax; settings: mean of both orientations
T19 chain: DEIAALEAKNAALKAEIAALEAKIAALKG

4H48-AA = molecular target: T20, 4H48-AA; test: two-hybrid library CCmax; settings: mean of both orientations
T20 chain: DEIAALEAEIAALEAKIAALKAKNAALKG

4H566-AA = molecular target: T21, 4H566-AA; test: two-hybrid library CCmax; settings: mean of both orientations
T21 chain: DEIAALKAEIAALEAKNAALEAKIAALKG

4H605-AA = molecular target: T22, 4H605-AA; test: two-hybrid library CCmax; settings: mean of both orientations
T22 chain: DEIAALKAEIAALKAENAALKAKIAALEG

4H678-AA = molecular target: T23, 4H678-AA; test: two-hybrid library CCmax; settings: mean of both orientations
T23 chain: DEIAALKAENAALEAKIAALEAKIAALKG

4H717-AA = molecular target: T24, 4H717-AA; test: two-hybrid library CCmax; settings: mean of both orientations
T24 chain: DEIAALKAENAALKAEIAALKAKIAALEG

4H780-AA = molecular target: T25, 4H780-AA; test: two-hybrid library CCmax; settings: mean of both orientations
T25 chain: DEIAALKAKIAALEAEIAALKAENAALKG

4H794-AA = molecular target: T26, 4H794-AA; test: two-hybrid library CCmax; settings: mean of both orientations
T26 chain: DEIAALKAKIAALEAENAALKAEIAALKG

4H881-AA = molecular target: T27, 4H881-AA; test: two-hybrid library CCmax; settings: mean of both orientations
T27 chain: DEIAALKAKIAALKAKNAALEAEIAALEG

4H906-AA = molecular target: T28, 4H906-AA; test: two-hybrid library CCmax; settings: mean of both orientations
T28 chain: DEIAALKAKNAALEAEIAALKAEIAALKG

4H993-AA = molecular target: T29, 4H993-AA; test: two-hybrid library CCmax; settings: mean of both orientations
T29 chain: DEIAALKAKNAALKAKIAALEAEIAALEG

N5-AA = molecular target: T30, N5-AA; test: two-hybrid library CCmax; settings: mean of both orientations
T30 chain: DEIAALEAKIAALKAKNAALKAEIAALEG

N6-AA = molecular target: T31, N6-AA; test: two-hybrid library CCmax; settings: mean of both orientations
T31 chain: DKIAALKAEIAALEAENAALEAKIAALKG

4H1449-bH = molecular target: T32, 4H1449-bH; test: two-hybrid library CCNG1
T32 chain: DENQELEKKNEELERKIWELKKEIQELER

4H1544-bH = molecular target: T33, 4H1544-bH; test: two-hybrid library CCNG1
T33 chain: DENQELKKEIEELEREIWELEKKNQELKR

4H1629-bH = molecular target: T34, 4H1629-bH; test: two-hybrid library CCNG1
T34 chain: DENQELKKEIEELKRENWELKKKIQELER

4H1710-bH = molecular target: T35, 4H1710-bH; test: two-hybrid library CCNG1
T35 chain: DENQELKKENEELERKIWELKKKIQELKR

4H1804-bH = molecular target: T36, 4H1804-bH; test: two-hybrid library CCNG1
T36 chain: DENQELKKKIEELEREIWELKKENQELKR

4H1899-bH = molecular target: T37, 4H1899-bH; test: two-hybrid library CCNG1
T37 chain: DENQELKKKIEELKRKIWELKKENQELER

4H1985-bH = molecular target: T38, 4H1985-bH; test: two-hybrid library CCNG1
T38 chain: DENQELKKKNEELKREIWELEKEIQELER

4H3129-bH = molecular target: T39, 4H3129-bH; test: two-hybrid library CCNG1
T39 chain: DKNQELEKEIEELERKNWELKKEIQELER

4H3172-bH = molecular target: T40, 4H3172-bH; test: two-hybrid library CCNG1
T40 chain: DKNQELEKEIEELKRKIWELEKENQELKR

4H3414-bH = molecular target: T41, 4H3414-bH; test: two-hybrid library CCNG1
T41 chain: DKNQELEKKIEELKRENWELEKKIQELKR

4H3592-bA = molecular target: T42, 4H3592-bA; test: two-hybrid library CCNG1
T42 chain: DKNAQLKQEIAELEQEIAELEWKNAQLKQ

4H3613-bH = molecular target: T43, 4H3613-bH; test: two-hybrid library CCNG1
T43 chain: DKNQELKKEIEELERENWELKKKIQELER

4H3628-bH = molecular target: T44, 4H3628-bH; test: two-hybrid library CCNG1
T44 chain: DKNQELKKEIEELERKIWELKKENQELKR

4H3631-bH = molecular target: T45, 4H3631-bH; test: two-hybrid library CCNG1
T45 chain: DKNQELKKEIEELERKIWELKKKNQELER

4H3638-bH = molecular target: T46, 4H3638-bH; test: two-hybrid library CCNG1
T46 chain: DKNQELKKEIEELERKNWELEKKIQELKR

4H3817-bH = molecular target: T47, 4H3817-bH; test: two-hybrid library CCNG1
T47 chain: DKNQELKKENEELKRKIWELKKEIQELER

4H3858-bH = molecular target: T48, 4H3858-bH; test: two-hybrid library CCNG1
T48 chain: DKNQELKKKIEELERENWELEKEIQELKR

4H3974-bH = molecular target: T49, 4H3974-bH; test: two-hybrid library CCNG1
T49 chain: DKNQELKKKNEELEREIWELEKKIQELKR

4H570-bH = molecular target: T50, 4H570-bH; test: two-hybrid library CCNG1
T50 chain: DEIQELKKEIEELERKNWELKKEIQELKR

4H584-bH = molecular target: T51, 4H584-bH; test: two-hybrid library CCNG1
T51 chain: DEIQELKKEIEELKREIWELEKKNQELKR

4H619-bH = molecular target: T52, 4H619-bH; test: two-hybrid library CCNG1
T52 chain: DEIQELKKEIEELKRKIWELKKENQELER

4H850-bH = molecular target: T53, 4H850-bH; test: two-hybrid library CCNG1
T53 chain: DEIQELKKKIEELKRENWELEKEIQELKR

4H906-bH = molecular target: T54, 4H906-bH; test: two-hybrid library CCNG1
T54 chain: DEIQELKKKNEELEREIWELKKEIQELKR

4H496-bA = molecular target: T55, 4H496-bA; test: two-hybrid library CCNG1
T55 chain: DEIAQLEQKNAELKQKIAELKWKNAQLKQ

O6-bP = molecular target: T56, O6-bP; test: two-hybrid library CCNG1
T56 chain: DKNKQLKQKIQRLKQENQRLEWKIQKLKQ

P8A-bH = molecular target: T57, P8A-bH; test: two-hybrid library CCNG1
T57 chain: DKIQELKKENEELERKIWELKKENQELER

interaction score (4H2729-AA): 1.46
interaction score (4H2754-AA): 2.26
interaction score (4H2837-AA): 0.924
interaction score (4H2883-AA): -1.1
interaction score (4H2944-AA): -1.66
interaction score (4H2949-AA): 1.85
interaction score (4H3112-AA): -0.662
interaction score (4H317-AA): 1.37
interaction score (4H3343-AA): -1.17
interaction score (4H335-AA): -0.622
interaction score (4H342-AA): 2.18
interaction score (4H3427-AA): -1.33
interaction score (4H3606-AA): -0.747
interaction score (4H3627-AA): 1.22
interaction score (4H3655-AA): -0.901
interaction score (4H3844-AA): -1.03
interaction score (4H3921-AA): -1.21
interaction score (4H429-AA): 1.68
interaction score (4H454-AA): 1.94
interaction score (4H48-AA): -0.497
interaction score (4H566-AA): 0.192
interaction score (4H605-AA): -1.37
interaction score (4H678-AA): 1.97
interaction score (4H717-AA): 1.12
interaction score (4H780-AA): -1.31
interaction score (4H794-AA): -1.09
interaction score (4H881-AA): -0.0189
interaction score (4H906-AA): 1.15
interaction score (4H993-AA): 1.96
interaction score (N5-AA): 0.643
interaction score (N6-AA): 1.56
B1: 4H2729-AA (peptide)
chain: DKIAALKAENAALEAKIAALKAEIAALEG

interaction score (4H1449-bH): -1.25
interaction score (4H1544-bH): -0.787
interaction score (4H1629-bH): -0.891
interaction score (4H1710-bH): -0.366
interaction score (4H1804-bH): -0.461
interaction score (4H1899-bH): -0.126
interaction score (4H1985-bH): -0.843
interaction score (4H3129-bH): -0.319
interaction score (4H3172-bH): -0.0351
interaction score (4H3414-bH): -0.216
interaction score (4H3592-bA): -0.126
interaction score (4H3613-bH): -0.131
interaction score (4H3628-bH): -0.479
interaction score (4H3631-bH): 0.733
interaction score (4H3638-bH): -0.0745
interaction score (4H3817-bH): -0.644
interaction score (4H3858-bH): -0.658
interaction score (4H3974-bH): 1.15
interaction score (4H570-bH): -0.108
interaction score (4H584-bH): -0.0853
interaction score (4H619-bH): -2.2
interaction score (4H850-bH): -0.674
interaction score (4H906-bH): -1.2
B2: 4H1449-bH (peptide)
chain: DENQELEKKNEELERKIWELKKEIQELER

interaction score (4H1629-bH): -0.954
interaction score (4H1710-bH): -2.67
interaction score (4H1804-bH): -1.81
interaction score (4H1985-bH): -0.16
interaction score (4H3129-bH): -0.581
interaction score (4H3172-bH): -0.534
interaction score (4H3414-bH): -1.1
interaction score (4H3631-bH): -0.299
interaction score (4H3638-bH): -1.09
interaction score (4H3817-bH): -0.618
interaction score (4H3974-bH): 0.236
interaction score (4H496-bA): -2.88
interaction score (4H570-bH): -1.69
interaction score (4H584-bH): 0.366
interaction score (4H619-bH): 0.577
interaction score (4H850-bH): 1.03
interaction score (4H906-bH): -0.794
interaction score (O6-bP): 1.7
interaction score (P8A-bH): 0.887
B3: 4H1629-bH (peptide)
chain: DENQELKKEIEELKRENWELKKKIQELER
